# Legend:
# HeLa Kyoto [1] = test: solubility in G1/S (NP-40 vs SDS abundance) (log2 ratio); higher = more soluble; conditions: cell cycle stage: G1/S
# HeLa Kyoto [2] = test: thermal stability score vs G1/S (z-score of summed log2 fold changes over temperatures); higher = more thermally stable than in G1/S
# HeLa Kyoto [3] = test: solubility change mitosis vs G1/S (difference of NP-40 vs SDS log2 ratios) (log2 ratio difference); higher = more soluble in mitosis
# HeLa Kyoto [4] = test: melting temperature (median over replicates), in situ; higher = more thermally stable
# [5] = cell cycle stage: early G1 (4.5 h after nocodazole release)
# 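For melting temperature (median over replicates), in situ in this document: HeLa Kyoto cells synchronized by double thymidine or nocodazole block, proteins quantified by TMT10plex mass spectrometry, three independent biological replicates.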
# 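For solubility change mitosis vs G1/S (difference of NP-40 vs SDS log2 ratios) in this document: synchronized HeLa Kyoto cells (double thymidine block for G1/S, nocodazole release for mitosis), protein amounts in NP-40 versus SDS lysates quantified by mass spectrometry, three biological replicates.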
# 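For solubility in G1/S (NP-40 vs SDS abundance) in this document: HeLa Kyoto cells arrested at G1/S by double thymidine block, proteins quantified by TMT10plex mass spectrometry in mild NP-40 versus SDS extracts, three biological replicates.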
# 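For thermal stability score vs G1/S (z-score of summed log2 fold changes over temperatures) in this document: synchronized HeLa Kyoto cells, proteins quantified by TMT10plex mass spectrometry, three biological replicates, mitosis taken 0.5 h after nocodazole release, G1/S directly after double thymidine block.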
# Sequence of DGKA (chain, as listed by the source): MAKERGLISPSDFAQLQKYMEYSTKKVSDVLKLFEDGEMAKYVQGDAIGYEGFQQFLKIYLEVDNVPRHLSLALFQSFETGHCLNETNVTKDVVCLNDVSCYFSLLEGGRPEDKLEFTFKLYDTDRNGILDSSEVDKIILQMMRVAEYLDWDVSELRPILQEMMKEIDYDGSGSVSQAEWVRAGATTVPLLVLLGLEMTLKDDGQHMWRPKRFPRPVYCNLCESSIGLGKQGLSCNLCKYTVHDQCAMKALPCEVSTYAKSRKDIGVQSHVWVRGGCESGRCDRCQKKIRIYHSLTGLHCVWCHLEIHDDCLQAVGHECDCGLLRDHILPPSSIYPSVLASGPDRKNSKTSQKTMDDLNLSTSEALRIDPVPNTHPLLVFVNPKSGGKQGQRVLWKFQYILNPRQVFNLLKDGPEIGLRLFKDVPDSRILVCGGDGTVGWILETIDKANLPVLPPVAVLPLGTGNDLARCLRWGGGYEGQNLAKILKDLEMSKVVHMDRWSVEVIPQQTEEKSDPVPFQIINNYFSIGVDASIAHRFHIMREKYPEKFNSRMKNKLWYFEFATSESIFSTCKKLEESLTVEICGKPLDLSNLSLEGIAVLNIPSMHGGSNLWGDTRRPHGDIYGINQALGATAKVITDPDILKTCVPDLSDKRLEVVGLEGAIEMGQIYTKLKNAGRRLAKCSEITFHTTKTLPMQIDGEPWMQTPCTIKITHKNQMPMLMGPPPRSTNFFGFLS
# Sequence of STAT2 (chain, as listed by the source): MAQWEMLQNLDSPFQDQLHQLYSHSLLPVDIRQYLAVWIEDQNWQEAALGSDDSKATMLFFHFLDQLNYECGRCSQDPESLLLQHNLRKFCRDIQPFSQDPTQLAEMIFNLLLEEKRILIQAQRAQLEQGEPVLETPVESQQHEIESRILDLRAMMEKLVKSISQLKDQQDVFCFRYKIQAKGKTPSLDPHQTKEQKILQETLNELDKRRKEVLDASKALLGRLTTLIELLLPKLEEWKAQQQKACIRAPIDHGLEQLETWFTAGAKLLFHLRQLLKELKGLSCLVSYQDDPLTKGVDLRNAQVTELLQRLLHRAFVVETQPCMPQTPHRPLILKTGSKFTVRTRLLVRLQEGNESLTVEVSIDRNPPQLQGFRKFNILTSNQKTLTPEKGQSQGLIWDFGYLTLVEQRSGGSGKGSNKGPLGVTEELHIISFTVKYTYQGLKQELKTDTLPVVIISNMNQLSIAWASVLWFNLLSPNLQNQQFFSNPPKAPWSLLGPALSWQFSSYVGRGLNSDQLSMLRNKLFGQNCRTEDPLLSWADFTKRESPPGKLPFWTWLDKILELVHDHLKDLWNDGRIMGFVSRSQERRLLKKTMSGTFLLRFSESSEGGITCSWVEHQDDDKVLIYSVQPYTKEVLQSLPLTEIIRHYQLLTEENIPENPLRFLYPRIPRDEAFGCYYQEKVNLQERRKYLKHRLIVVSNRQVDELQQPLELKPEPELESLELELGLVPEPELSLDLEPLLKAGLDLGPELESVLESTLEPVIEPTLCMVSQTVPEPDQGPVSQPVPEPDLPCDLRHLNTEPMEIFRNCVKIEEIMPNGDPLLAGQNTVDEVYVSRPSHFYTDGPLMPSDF
# Sequence of DENND4A (chain, as listed by the source): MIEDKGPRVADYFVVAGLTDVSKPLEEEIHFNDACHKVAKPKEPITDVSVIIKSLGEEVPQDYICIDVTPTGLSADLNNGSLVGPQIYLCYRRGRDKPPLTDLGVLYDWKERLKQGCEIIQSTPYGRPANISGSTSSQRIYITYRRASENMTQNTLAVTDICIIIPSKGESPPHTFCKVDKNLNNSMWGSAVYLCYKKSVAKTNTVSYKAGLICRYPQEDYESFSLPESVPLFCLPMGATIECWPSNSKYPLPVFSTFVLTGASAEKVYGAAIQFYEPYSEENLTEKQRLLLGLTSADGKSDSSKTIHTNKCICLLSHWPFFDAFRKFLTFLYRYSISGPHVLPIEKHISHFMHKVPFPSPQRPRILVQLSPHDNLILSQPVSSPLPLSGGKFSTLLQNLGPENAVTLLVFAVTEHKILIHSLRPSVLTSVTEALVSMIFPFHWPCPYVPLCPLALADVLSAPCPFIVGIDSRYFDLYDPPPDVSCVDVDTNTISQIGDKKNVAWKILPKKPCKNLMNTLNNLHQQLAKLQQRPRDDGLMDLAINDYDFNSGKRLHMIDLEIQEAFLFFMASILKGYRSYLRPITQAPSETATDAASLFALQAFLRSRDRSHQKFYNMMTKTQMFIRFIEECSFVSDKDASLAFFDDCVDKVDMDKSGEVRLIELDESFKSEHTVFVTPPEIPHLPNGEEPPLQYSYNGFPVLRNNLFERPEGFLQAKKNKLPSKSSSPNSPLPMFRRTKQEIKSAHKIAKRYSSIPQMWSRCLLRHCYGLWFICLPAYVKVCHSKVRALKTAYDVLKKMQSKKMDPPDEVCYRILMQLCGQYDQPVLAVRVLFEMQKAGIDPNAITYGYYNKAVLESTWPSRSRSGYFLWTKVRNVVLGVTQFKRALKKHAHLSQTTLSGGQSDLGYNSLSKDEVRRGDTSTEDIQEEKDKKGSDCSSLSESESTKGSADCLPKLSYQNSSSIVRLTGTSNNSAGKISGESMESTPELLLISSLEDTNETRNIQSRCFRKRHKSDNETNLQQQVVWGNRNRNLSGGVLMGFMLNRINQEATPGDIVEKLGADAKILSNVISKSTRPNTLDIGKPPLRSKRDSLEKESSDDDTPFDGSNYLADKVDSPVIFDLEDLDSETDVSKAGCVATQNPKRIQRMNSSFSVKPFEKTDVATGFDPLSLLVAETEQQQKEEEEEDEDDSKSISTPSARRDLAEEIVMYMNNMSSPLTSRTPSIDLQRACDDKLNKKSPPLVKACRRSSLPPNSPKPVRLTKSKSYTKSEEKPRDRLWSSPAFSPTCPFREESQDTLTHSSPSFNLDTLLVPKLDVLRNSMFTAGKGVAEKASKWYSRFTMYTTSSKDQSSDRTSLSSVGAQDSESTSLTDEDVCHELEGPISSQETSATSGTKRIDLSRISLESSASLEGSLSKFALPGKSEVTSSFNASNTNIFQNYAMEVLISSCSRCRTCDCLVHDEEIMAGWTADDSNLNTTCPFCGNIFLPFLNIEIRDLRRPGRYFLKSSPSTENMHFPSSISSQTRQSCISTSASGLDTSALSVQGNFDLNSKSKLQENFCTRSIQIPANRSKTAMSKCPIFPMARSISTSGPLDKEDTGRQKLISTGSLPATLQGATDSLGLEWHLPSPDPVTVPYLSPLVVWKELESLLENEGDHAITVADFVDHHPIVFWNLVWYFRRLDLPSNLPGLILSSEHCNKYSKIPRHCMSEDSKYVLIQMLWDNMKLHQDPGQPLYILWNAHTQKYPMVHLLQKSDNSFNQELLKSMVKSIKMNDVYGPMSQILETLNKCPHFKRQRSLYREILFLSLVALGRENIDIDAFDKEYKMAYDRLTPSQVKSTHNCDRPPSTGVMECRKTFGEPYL
# Sequence of TAF6 (chain, as listed by the source): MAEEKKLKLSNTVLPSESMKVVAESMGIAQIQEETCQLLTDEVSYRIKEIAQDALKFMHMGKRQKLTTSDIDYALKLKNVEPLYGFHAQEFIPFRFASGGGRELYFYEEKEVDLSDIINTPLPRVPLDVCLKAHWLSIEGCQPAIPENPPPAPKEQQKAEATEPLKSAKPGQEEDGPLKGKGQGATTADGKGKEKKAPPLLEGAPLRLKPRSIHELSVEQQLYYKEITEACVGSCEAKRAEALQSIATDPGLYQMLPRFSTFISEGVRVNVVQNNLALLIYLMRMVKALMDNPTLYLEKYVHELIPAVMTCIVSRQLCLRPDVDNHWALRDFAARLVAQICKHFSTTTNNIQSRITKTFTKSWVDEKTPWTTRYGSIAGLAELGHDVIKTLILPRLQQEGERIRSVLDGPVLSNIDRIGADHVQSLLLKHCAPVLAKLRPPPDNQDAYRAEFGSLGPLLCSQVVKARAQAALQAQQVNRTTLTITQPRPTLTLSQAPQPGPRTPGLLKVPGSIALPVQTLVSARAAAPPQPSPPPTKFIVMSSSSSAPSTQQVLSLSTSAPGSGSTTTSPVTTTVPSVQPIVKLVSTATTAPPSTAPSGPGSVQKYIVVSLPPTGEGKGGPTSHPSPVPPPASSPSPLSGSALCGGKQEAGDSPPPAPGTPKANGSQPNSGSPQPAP
Substance,solubility in G1/S (log2) (HeLa Kyoto [1]),thermal stability score (HeLa Kyoto [2]; [5]),thermal stability score (HeLa Kyoto [2]; cell cycle stage: mitosis),solubility change mitosis (log2) (HeLa Kyoto [3]),melting temperature (HeLa Kyoto [4]; cell cycle stage: G1/S),melting temperature (HeLa Kyoto [4]; cell cycle stage: mitosis)
DENND4A,0.0407,-0.12,-0.608,-0.246,–,–
DGKA,-0.0832,0.0904,0.484,-0.157,–,–
ESPL1,-0.00542,0.555,2.16,-0.204,–,–
LAMA3,-0.331,-0.604,-0.145,0.0773,–,–
MAAAAVDSAMEVVPALAEEAAPEVAGLSCLVNLPGEVLEYILCCGSLTAADIGRVSSTCRRLRELCQSSGKVWKEQFRVRWPSLMKHYSPTDYVNWLEEYKVRQKAGLEARKIVASFSKRFFSEHVPCNGFSDIENLEGPEIFFEDELVCILNMEGRKALTWKYYAKKILYYLRQQKILNNLKAFLQQPDDYESYLEGAVYIDQYCNPLSDISLKDIQAQIDSIVELVCKTLRGINSRHPSLAFKAGESSMIMEIELQSQVLDAMNYVLYDQLKFKGNRMDYYNALNLYMHQVLIRRTGIPISMSLLYLTIARQLGVPLEPVNFPSHFLLRWCQGAEGATLDIFDYIYIDAFGKGKQLTVKECEYLIGQHVTAALYGVVNVKKVLQRMVGNLLSLGKREGIDQSYQLLRDSLDLYLAMYPDQVQLLLLQARLYFHLGIWPEKSFCLVLKVLDILQHIQTLDPGQHGAVGYLVQHTLEHIERKKEEVGVEVKLRSDEKHRDVCYSIGLIMKHKRYGYNCVIYGWDPTCMMGHEWIRNMNVHSLPHGHHQPFYNVLVEDGSCRYAAQENLEYNVEPQEISHPDVGRYFSEFTGTHYIPNAELEIRYPEDLEFVYETVQNIYSAKKENIDE [FBXO21],-0.126,0.858,1.12,-0.0785,–,–
MAALTIATGTGNWFSALALGVTLLKCLLIPTYHSTDFEVHRNWLAITHSLPISQWYYEATSEWTLDYPPFFAWFEYILSHVAKYFDQEMLNVHNLNYSSSRTLLFQRFSVIFMDVLFVYAVRECCKCIDGKKVGKELTEKPKFILSVLLLWNFGLLIVDHIHFQYNGFLFGLMLLSIARLFQKRHMEGAFLFAVLLHFKHIYLYVAPAYGVYLLRSYCFTANKPDGSIRWKSFSFVRVISLGLVVFLVSALSLGPFLALNQLPQVFSRLFPFKRGLCHAYWAPNFWALYNALDKVLSVIGLKLKFLDPNNIPKASMTSGLVQQFQHTVLPSVTPLATLICTLIAILPSIFCLWFKPQGPRGFLRCLTLCALSSFMFGWHVHEKAILLAILPMSLLSVGKAGDASIFLILTTTGHYSLFPLLFTAPELPIKILLMLLFTIYSISSLKTLFRKEKPLFNWMETFYLLGLGPLEVCCEFVFPFTSWKVKYPFIPLLLTSVYCAVGITYAWFKLYVSVLIDSAIGKTKKQ [ALG8],-0.668,-0.785,-1.28,-0.131,–,–
MAASGVEKSSKKKTEKKLAAREEAKLLAGFMGVMNNMRKQKTLCDVILMVQERKIPAHRVVLAAASHFFNLMFTTNMLESKSFEVELKDAEPDIIEQLVEFAYTARISVNSNNVQSLLDAANQYQIEPVKKMCVDFLKEQVDASNCLGISVLAECLDCPELKATADDFIHQHFTEVYKTDEFLQLDVKRVTHLLNQDTLTVRAEDQVYDAAVRWLKYDEPNRQPFMVDILAKVRFPLISKNFLSKTVQAEPLIQDNPECLKMVISGMRYHLLSPEDREELVDGTRPRRKKHDYRIALFGGSQPQSCRYFNPKDYSWTDIRCPFEKRRDAACVFWDNVVYILGGSQLFPIKRMDCYNVVKDSWYSKLGPPTPRDSLAACAAEGKIYTSGGSEVGNSALYLFECYDTRTESWHTKPSMLTQRCSHGMVEANGLIYVCGGSLGNNVSGRVLNSCEVYDPATETWTELCPMIEARKNHGLVFVKDKIFAVGGQNGLGGLDNVEYYDIKLNEWKMVSPMPWKGVTVKCAAVGSIVYVLAGFQGVGRLGHILEYNTETDKWVANSKVRAFPVTSCLICVVDTCGANEETLET [KLHL7],-0.622,0.201,-0.116,0.322,–,–
MWHSVGLTLLVFVATLLIVLLLMVCGWYFVWHLFLSKFKFLRELVGDTGSQEGDHEPSGSETEEDTSSSPHRIRSARQRRAPADEGHRPLT [SMIM13],-0.0724,–,–,-0.138,55.5 °C,–
STAT2,-0.0132,–,–,-0.0626,49.1 °C,50.9 °C
TAF6,0.14,–,–,0.046,49.1 °C,49.6 °C
TATDN3,0.608,–,–,-0.0652,56.5 °C,56.3 °C
ZNF318,-0.136,–,–,-0.0151,46.2 °C,49.2 °C

# — the supplement of paper PMC5998384
